This note sets out measurements from patent US20150315280A1 (Chugai, published 2015).

In this assay the target is T1, mouse NR 10 (mouse, UniProt Q8K5B1 19-716).
T1 construct: In the proliferation assays it is expressed on Ba/F3 cells together with mouse OSMR, with which it forms the IL-31 receptor; also called mNR 10; IL-31RA
T1 sequence: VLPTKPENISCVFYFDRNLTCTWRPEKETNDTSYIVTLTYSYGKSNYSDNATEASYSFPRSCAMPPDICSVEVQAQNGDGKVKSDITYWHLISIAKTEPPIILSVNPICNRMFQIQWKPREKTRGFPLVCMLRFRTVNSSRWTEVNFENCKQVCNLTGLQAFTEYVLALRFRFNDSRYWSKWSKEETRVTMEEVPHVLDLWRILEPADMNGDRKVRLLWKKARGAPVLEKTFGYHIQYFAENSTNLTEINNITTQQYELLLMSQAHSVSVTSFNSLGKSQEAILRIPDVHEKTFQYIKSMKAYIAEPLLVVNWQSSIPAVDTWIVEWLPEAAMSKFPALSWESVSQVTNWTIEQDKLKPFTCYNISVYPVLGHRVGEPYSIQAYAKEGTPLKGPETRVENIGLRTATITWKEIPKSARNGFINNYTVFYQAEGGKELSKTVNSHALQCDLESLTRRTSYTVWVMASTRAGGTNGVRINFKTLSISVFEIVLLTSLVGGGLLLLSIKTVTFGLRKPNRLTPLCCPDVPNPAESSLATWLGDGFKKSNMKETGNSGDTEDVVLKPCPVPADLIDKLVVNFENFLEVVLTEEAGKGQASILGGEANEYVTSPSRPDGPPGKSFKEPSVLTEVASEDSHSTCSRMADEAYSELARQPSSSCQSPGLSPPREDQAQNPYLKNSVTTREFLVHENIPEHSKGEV
Kind of assay: immunohistochemical staining of auricles of chronic dermatitis model mice. An excerpt: The expression of human NR 10 was reported to be enhanced in thickened epidermis of atopic dermatitis patients (Non-patent Document 1). Auricles of the above-described chronic dermatitis model mice were immunohistochemically stained.

B1: BM095 in which the constant region was replaced with that of human IgG (antibody, V domains shown)
VH: not shown
VL: LPVLTQPPSVSVAPGQTARITCGGNNIGSKTVYWYQQEPGQAPVLVVYDDTDRPAGIPERFSGANSGNTATLTISRVEAGDEADYYCQVWDSSTDHGVFGGGTKLTVLG
In the case of B1, the binding result is recorded as “binds”.
